{
  "source": "paper doi:10.1101/2020.07.01.179531v1",
  "substrate": "O=P(O)(O)OC[C@@H](O)[C@@H](O)[C@H](O)[C@H](O)CO",
  "assay": "purified protein",
  "conditions": "3 mM DTT added; other conditions presumably as for EsM1Pase1short",
  "data": [
    {"protein": "EsM1Pase2 (Ectocarpus siliculosus) (protein) MEKAKAFDKMSILFDFDGTIGDTETPAMEVAFWELAPYLPDTTPDKLDGLMPEFVRDNAGKAFEFMVEKVDEDRKAAGLSTISEAFAAKSEPKEMLDAVDPHRKKFGLKTFAELRAPDGGEKENLLIQQKTETVDALSKIAQPCNGVPEVLAALTAAGVAFCISTTSPKPRVPASITACKLDEYFPADKVHSGESDFDPPRFKPNPSVYLKAAETEGKEPANCIAVEDSGSGVGSASNAGVGLTVGYVGASHIPDYKKDTHAEMLMSGGRAENGKGAEIVISDMTDLPKVIEFFAGEKIAGKSAPFDFPEELISSLKQPVWVHSTKA", "values": [
      {"measurement": "Km", "result": 1300, "unit": "µM"},
      {"measurement": "kcat", "result": 0.05, "unit": "s⁻¹"}
    ]}
  ]
}
